Measurements as given in paper PMC5669894.

What was measured:
[1] = biological target: C-terminal SH3 domain of the growth factor receptor-bound protein 2 (Grb2) (UniProt P62993); experiment: stopped-flow binding kinetics (intrinsic fluorescence); pseudo-first order; Grb2 SH3C constant at 0.5 μM, Gab2 503-524 peptide 1-10 μM (1-12 μM for P519A); 10°C; 25mM HEPES, 100mM potassium acetate, pH 7.5; apparent association and dissociation rate constants
[2] = biological target: C-terminal SH3 domain of the growth factor receptor-bound protein 2 (Grb2) (UniProt P62993); experiment: stopped-flow displacement kinetics (intrinsic fluorescence); pre-incubated complex of wild type Grb2 SH3C (10 μM) and Gab2 503-524 (10 μM) mixed with excess Grb2 SH3C W35Y/W36Y (100 μM and 200 μM); 25°C; 25mM HEPES, 100mM potassium acetate, pH 7.5

Chain of Gab2 503-524 peptide, wild type (Q9UQC2 503-524): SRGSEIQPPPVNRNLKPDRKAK

Substance	Kd [1] [nM]	koff [2] [s⁻¹]	koff [1] [s⁻¹]	kon [1] [M⁻¹ s⁻¹]
Gab2 503-524 peptide, variant P510A	2500	–	–	–
Gab2 503-524 peptide, wild type	–	350	53	4.3e+07
Gab2 503-524 peptide, variant P512A	2500	–	–	–
Gab2 503-524 peptide, variant P519A	12000	–	–	–
